What was measured:
[1] = molecular target: RAS antigen of the BIAcore measurements; assay: SPR, BIAcore 2000
[2] = molecular target: RAS antigen of the BIAcore measurements; assay: SPR, BIAcore 2000; Kd = koff/kon

B1: anti-RAS scFv33 (scFv)
chain: QVQLVEAGGGLVQPGGSLRLSCAASGFSFSTFSMNWVRQAPGKGLEWVSYISSSGRTIYYADSVKGRFTISRDNAKNSLYLQMNSLRDEDTAVYYCARGRFFDYWGQGTLVTVSSGGGGSGGGGSGGGGSDIVMTQSPSFLSASVGDRVTITCRASQSISRYLNWYQQKPGKAPKLLIYAASSLQSGVPSRFSGSGSGTDFTLTISSLQPEDFAIYYCQQSYSTLLTFGGGTKLEIKR
What does the source list for B1?
koff [1]: 0.00113 s⁻¹; kon [1]: 176000 M⁻¹ s⁻¹; Kd [2]: 9.97 nM

Reference: US20050272107A1 (MEDICAL RESEARCH COUNCIL, published 2005)
